Tested on: CD3-Fc-fusion protein
Test: ELISA analysis of TCO- and DBCO-conjugated scFv specific for CD3
Assay type: binding
Conditions: anti-PD1 scFv negative control, anti-CD3 scFv positive control
Experimental: The DNA sequence encoding SEQ ID NO: 42 was synthesized and expressed as in the above Examples. The sequences of VL and VH of scFv specific for CD3 were those of VL and VH of mutated Teplizumab. For the conjugation with Mal-PEG3-TCO and Mal-PEG5-DBCO (Conju-probe, Inc.), the cysteine residue at the C-terminal end of the purified scFv of the mutated teplizumab was reduced by incubating 5 mM DTT at room temperature for 4 hours with gentle shaking. The buffer of reduced anti-CD3 scFv was exchanged to sodium phosphate buffer (100 mM sodium phosphate, pH7.0, 50 mM NaCl, and 5 mM EDTA) by using NAP-10 Sephadex G-25 column. After the reduction reaction and buffer exchange, conjugation was conducted overnight at room temperature in a reaction molar ratio of 1:1 ([Mal-PEG3-TCO or Mal-PEG5-DBCO:[scFv]]. The excess crosslinker was removed by a desalting column and the TCO-conjugated and DBCO-conjugated scFv products were analyzed.
The purity of TCO-conjugated scFvs specific for CD3 was identified through Coomassie staining of 12% SDS-PAGE (data not shown). FIG. 23A and […] show, respectively, the ELISA analysis of TCO-conjugated scFv and DBCO-conjugated scFv specific for CD3, in which anti-PD1 scFv and anti-CD3 scFv were used as a negative control and positive control, respectively.

Sequence of CD3-Fc-fusion protein (P07766 23-126 limits assumed): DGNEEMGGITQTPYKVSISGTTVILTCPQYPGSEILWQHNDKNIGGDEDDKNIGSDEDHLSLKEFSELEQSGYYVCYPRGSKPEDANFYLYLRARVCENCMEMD

Row | Molecule | binding to CD3-Fc-fusion protein (ELISA)
1 | TCO-conjugated scFv: scFv of mutated teplizumab (SEQ ID NO: 42) conjugated with Mal-PEG3-TCO (protein, Mal-PEG3-TCO conjugate; mutated teplizumab scFv) scFv: DIQMTQSPSSLSASVGDRVTITCSASSSVSYMNWYQQTPGKAPKRWIYDTSKLASGVPSRFSGSGSGTDYTFTISSLQPEDIATYYCQQWSSNPFTFGQGTKLQITRGSTSGSGKPGSGEGSTKGQVQLVQSGGGVVQPGRSLRLSCKASGYTFTRYTMHWVRQAPGKGLEWIGYINPSRGYTNYNQKVKDRFTISRDNSKNTAFLQMDSLRPEDTGVYFCARYYDDHYSLDYWGQGTPVTVSSGGGGSGGGGSC | bound to CD3-Fc-fusion protein
2 | DBCO-conjugated scFv specific for CD3: scFv of mutated teplizumab (SEQ ID NO: 42) conjugated with Mal-PEG5-DBCO (protein, Mal-PEG5-DBCO conjugate; mutated teplizumab scFv) scFv: DIQMTQSPSSLSASVGDRVTITCSASSSVSYMNWYQQTPGKAPKRWIYDTSKLASGVPSRFSGSGSGTDYTFTISSLQPEDIATYYCQQWSSNPFTFGQGTKLQITRGSTSGSGKPGSGEGSTKGQVQLVQSGGGVVQPGRSLRLSCKASGYTFTRYTMHWVRQAPGKGLEWIGYINPSRGYTNYNQKVKDRFTISRDNSKNTAFLQMDSLRPEDTGVYFCARYYDDHYSLDYWGQGTPVTVSSGGGGSGGGGSC | bound to CD3-Fc-fusion protein
